Laboratory results as given in patent US20020052476A1 (Human Genome Sciences, published 2002).

Assays:
[1] = target: T1, papain (EC 3.4.22.2; from Sigma) (UniProt P00784 134-345); assay: titration of papain activity (Bz-Arg-pNA hydrolysis) with varying inhibitor concentrations; linear titration curves
T1 construct: Commercial enzyme
T1 sequence (looked up): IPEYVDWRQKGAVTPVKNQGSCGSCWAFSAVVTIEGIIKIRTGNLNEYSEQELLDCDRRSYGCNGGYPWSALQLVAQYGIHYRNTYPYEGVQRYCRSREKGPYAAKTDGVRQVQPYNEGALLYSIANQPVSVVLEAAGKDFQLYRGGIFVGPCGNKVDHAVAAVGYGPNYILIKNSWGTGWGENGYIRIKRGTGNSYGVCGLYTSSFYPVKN
Text: To test the function of CysE and m-CysE as protease inhibitors their effect on papain hydrolysis of casein was investigated according to the method of Example 10. […] The m-CysE mutant performed similarly (data not shown).
The methods used for active site titration of papain, titration of the molar enzyme inhibitory concentration in cystatin E preparations, and for determination of equilibrium constants for dissociation (Ki) of complexes between cystatin E and cysteine peptidases are described in detail in Hall et al., Biochem. J., 291:123-29 (1993) and Abrahamson, Methods Enzymol., 244:685-700 (1994), both of which are hereby incorporated herein by reference. The enzymes used for equilibrium assays were papain (EC 3.4.22.2; from Sigma, St Louis, Mo.) and cathepsin B (EC 3.4.22.1; from Calbiochem, La Jolla, Calif.). […] Steady state velocities were measured and Ki values were calculated according to Henderson, Biochem J., 127:321-333 (1972), incorporated herein by reference. Corrections for substrate competition were made using Km values of 150=B5M for cathepsins B (Barrett and Kirschke, Methods Enzymol., 80:535-561 (1981) and 60=B5M for papain (Hall et al., Biochem. J., 291:123-29 (1992)), both of which are hereby incorporated herein by reference.

[2] = target: T2, m-CysE (mutant CysE: amino acids 29-143 of SEQ ID NO: 2 plus a 27 amino acid C-terminal fusion product encoded by the pA2 vector)
T2 chain: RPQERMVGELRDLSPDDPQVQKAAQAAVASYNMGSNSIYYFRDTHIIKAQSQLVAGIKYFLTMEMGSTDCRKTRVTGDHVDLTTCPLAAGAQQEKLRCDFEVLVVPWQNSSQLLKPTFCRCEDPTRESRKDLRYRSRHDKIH

[3] = target: T3, recombinant human cystatin E (mature CysE secreted from baculovirus-infected Sf9 cells)
T3 chain: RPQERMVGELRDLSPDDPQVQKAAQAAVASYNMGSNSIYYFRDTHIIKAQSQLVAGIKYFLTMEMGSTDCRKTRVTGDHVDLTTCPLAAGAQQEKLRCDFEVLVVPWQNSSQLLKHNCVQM

B1: recombinant human cystatin E (mature CysE secreted from baculovirus-infected Sf9 cells) (other)
chain: RPQERMVGELRDLSPDDPQVQKAAQAAVASYNMGSNSIYYFRDTHIIKAQSQLVAGIKYFLTMEMGSTDCRKTRVTGDHVDLTTCPLAAGAQQEKLRCDFEVLVVPWQNSSQLLKHNCVQM
modifications: partly N-glycosylated (protein band doublet, a glycosylated and an unglycosylated form)
notes: Full-length cDNA was expressed in Sf9 cells; also called recombinant CysE
- Ki [1]: < 10 nM

B2: papain (EC 3.4.22.2; from Sigma) (protein)
chain: IPEYVDWRQKGAVTPVKNQGSCGSCWAFSAVVTIEGIIKIRTGNLNEYSEQELLDCDRRSYGCNGGYPWSALQLVAQYGIHYRNTYPYEGVQRYCRSREKGPYAAKTDGVRQVQPYNEGALLYSIANQPVSVVLEAAGKDFQLYRGGIFVGPCGNKVDHAVAAVGYGPNYILIKNSWGTGWGENGYIRIKRGTGNSYGVCGLYTSSFYPVKN
- papain hydrolysis of casein [2]: Both CysE and m-CysE showed a dose- and time-dependent inhibition of papain activity (data not shown)
- papain hydrolysis of Bz-Arg-pNA in 10 minute assays [3]: At mM concentrations, the recombinant CysE completely inhibited papain hydrolysis of Bz-Arg-pNA in 10 minute assays
- papain hydrolysis of casein [3]: Both CysE and m-CysE showed a dose- and time-dependent inhibition of papain activity (data not shown)
